Laboratory results reported in paper PMC9746966, “Structural basis for matriglycan synthesis by the LARGE1 dual glycosyltransferase” (PLOS ONE, 2022).

B1: LARGE1^ecto (soluble secreted ectodomain of human LARGE1 with its coiled-coil domain, residues 29-756) (domain or fragment, UniProt O95461 29-756, looked up)
chain: LFSGSFEDGKPVSLSPLESQAHSPRYTASSQRERESLEVRMREVEEENRALRRQLSLAQGRAPSHRRGNHSKTYSMEEGTGDSENLRAGIVAGNSSECGQQPVVEKCETIHVAIVCAGYNASRDVVTLVKSVLFHRRNPLHFHLIADSIAEQILATLFQTWMVPAVRVDFYNADELKSEVSWIPNKHYSGIYGLMKLVLTKTLPANLERVIVLDTDITFATDIAELWAVFHKFKGQQVLGLVENQSDWYLGNLWKNHRPWPALGRGYNTGVILLLLDKLRKMKWEQMWRLTAERELMGMLSTSLADQDIFNAVIKQNPFLVYQLPCFWNVQLSDHTRSEQCYRDVSDLKVIHWNSPKKLRVKNKHVEFFRNLYLTFLEYDGNLLRRELFGCPSEADVNSENLQKQLSELDEDDLCYEFRRERFTVHRTHLYFLHYEYEPAADSTDVTLVAQLSMDRLQMLEAICKHWEGPISLALYLSDAEAQQFLRYAQGSEVLMSRHNVGYHIVYKEGQFYPVNLLRNVAMKHISTPYMFLSDIDFLPMYGLYEYLRKSVIQLDLANTKKAMIVPAFETLRYRLSFPKSKAELLSMLDMGTLFTFRYHVWTKGHAPTNFAKWRTATTPYRVEWEADFEPYVVVRRDCPEYDRRFVGFGWNKVAHIMELDVQEYEFIVLPNAYMIHMPHAPSFDITKFRSNKQYRICLKTLKEEFQQDMSRRYGFAALKYLTAENNS
notes: Cloned into a modified pHLsec plasmid (BglII/NotI); also called Like-acetylglucosaminyltransferase 1; LARGE1-His WT
B2: LARGE1^ΔCC (soluble secreted ectodomain of human LARGE1 without its coiled-coil domain, residues 92-756) (domain or fragment, UniProt O95461 92-756, looked up)
chain: SHRRGNHSKTYSMEEGTGDSENLRAGIVAGNSSECGQQPVVEKCETIHVAIVCAGYNASRDVVTLVKSVLFHRRNPLHFHLIADSIAEQILATLFQTWMVPAVRVDFYNADELKSEVSWIPNKHYSGIYGLMKLVLTKTLPANLERVIVLDTDITFATDIAELWAVFHKFKGQQVLGLVENQSDWYLGNLWKNHRPWPALGRGYNTGVILLLLDKLRKMKWEQMWRLTAERELMGMLSTSLADQDIFNAVIKQNPFLVYQLPCFWNVQLSDHTRSEQCYRDVSDLKVIHWNSPKKLRVKNKHVEFFRNLYLTFLEYDGNLLRRELFGCPSEADVNSENLQKQLSELDEDDLCYEFRRERFTVHRTHLYFLHYEYEPAADSTDVTLVAQLSMDRLQMLEAICKHWEGPISLALYLSDAEAQQFLRYAQGSEVLMSRHNVGYHIVYKEGQFYPVNLLRNVAMKHISTPYMFLSDIDFLPMYGLYEYLRKSVIQLDLANTKKAMIVPAFETLRYRLSFPKSKAELLSMLDMGTLFTFRYHVWTKGHAPTNFAKWRTATTPYRVEWEADFEPYVVVRRDCPEYDRRFVGFGWNKVAHIMELDVQEYEFIVLPNAYMIHMPHAPSFDITKFRSNKQYRICLKTLKEEFQQDMSRRYGFAALKYLTAENNS
notes: residues 134 to 752 are modelled in the crystal structure; Cloned into a modified pHLsec plasmid; also called LARGE1 without CC; LARGE1- CC

Molecular target: the molecule itself
Assay: mass photometry; Refeyn One MP; LARGE1 samples diluted in TBS to approximately 30 nM (2.5 ug/ml), room temperature, 60 second recordings; monomer to dimer

Row | Protein | stoichiometry N
1 | B1 | 2
2 | B2 | 2
